In patent US8445006B2, “Biomolecular coating for implants” (Georgia Tech Research Corporation, priority 2006, dated 2013):

Tests used:
[1] = test system: bone marrow stromal cells; assay: Alkaline phosphatase biochemical activity assay; assay type: cell-based, rat
Description: Primary bone marrow stromal cells were harvested from the femora of young adult male Wistar rats in accordance with an IACUC-approved protocol. After excision, hindleg femora and tibiae were cleared of soft tissue and rinsed in growth medium (α-minimal essential medium supplemented with 10% fetal bovine serum, 1% penicillin-streptomycin, and 0.3 μg/ml amphotericin B). The ends of the long bones were then removed and the marrow space was flushed with culture medium (3-5 ml), using a syringe with an 18-gauge needle. Marrow isolates were pooled, centrifuged, resuspended in growth medium, and seeded for adhesion-dependent selection on tissue culture polystyrene dishes. Non-adherent hematopoietic cells were removed during subsequent medium exchanges, which occurred every other day. Cells were subcultured every two days according to standard techniques. For in vitro osteogenic assays, cells were seeded at 10,000 cells/cm^2 in growth medium. […]
ALP activity was quantified at 7 days in culture using a modification of the Sodek and Berkman method. […] After sonication and centrifugation, the protein concentration was quantified using a Pierce Micro BCA protein assay kit. […] After a 60 min incubation at 37° C., the fluorescence was read at an excitation of 360 nm and an emission of 465 nm on an HTS 7000 Plus BioAssay Reader (Perkin Elmer). […]

[2] = target: T1, α5β1 integrin (Mus musculus, UniProt P09055+P11688); assay: Crosslinking/extraction immunostaining of bound integrin; assay type: cell-based, murine; conditions: 4 h on saturated ligand-functionalized SAMs
T1 construct: endogenous in cells; host or cells: MC3T3-E1 murine osteoblast-like cells
Description: Surfaces were prepared on either 6-well plate lids or 35 mm tissue culture dishes, and cells seeded at 75 cells/mm^2 in serum-containing media for 4 h at 37° C. For integrin staining, a cross-linking/extraction biochemical method that selectively isolates bound integrins was employed. Cells were washed, and 1.0 mM DTSSP (Pierce) was added for 15 min to cross-link ligated integrins. After quenching with 50 mM Tris, uncrosslinked cellular components were extracted in 0.1% SDS supplemented with protease inhibitors (350 μg/ml PMSF). Samples were then blocked in 5% FBS for 1 h and incubated with integrin-specific antibodies for 1 h at 37° C. Fluorochrome-labeled secondary antibodies were then incubated for 1 h at 37° C. Following washing, samples were mounted on slides with Gel/Mount mounting media (Biomeda, Foster City, Calif.). For staining of focal adhesions, cells were extracted in 0.5% Triton X-100 in ice-cold cytoskeleton buffer (50 mM NaCl, 3 mM MgCl2, 150 mM sucrose, 20 μg/ml aprotonin, 1 μg/ml leupeptin, 1 mM PMSF, 50 mM Tris, pH 6.8) for 2 min and fixed in cold 3.7% formaldehyde in DPBS for 5 min. Cultures were blocked, subsequently incubated in anti-vinculin monoclonal antibody (1:70 in 5% FBS) and fluorochrome-labeled secondary antibodies for 1 h, and samples mounted on slides.
Since MC3T3-E1 cells assemble robust focal adhesions containing clustered integrins and intracellular structural and signaling proteins, integrin binding and focal adhesion assembly on the engineered interfaces was examined by staining for different integrin subunits and vinculin, which localizes to focal adhesions. MC3T3-E1 cells were allowed to adhere on each saturated ligand-functionalized support for 4 h and integrin binding was evaluated via a crosslinking/extraction and immunostaining protocol, which isolates integrins ligated to the ligand. […] The crosslinking and extraction technique relies in coupling free amines on both the receptor and ligand. Since the tethered RGD has no free amine, the αvβ3 staining in the RGD surfaces is attributed to focal adhesions that were not completely extracted. […] Both surfaces assembled focal adhesions containing vinculin.

T1 sequence (P11688 45-898 limits assumed): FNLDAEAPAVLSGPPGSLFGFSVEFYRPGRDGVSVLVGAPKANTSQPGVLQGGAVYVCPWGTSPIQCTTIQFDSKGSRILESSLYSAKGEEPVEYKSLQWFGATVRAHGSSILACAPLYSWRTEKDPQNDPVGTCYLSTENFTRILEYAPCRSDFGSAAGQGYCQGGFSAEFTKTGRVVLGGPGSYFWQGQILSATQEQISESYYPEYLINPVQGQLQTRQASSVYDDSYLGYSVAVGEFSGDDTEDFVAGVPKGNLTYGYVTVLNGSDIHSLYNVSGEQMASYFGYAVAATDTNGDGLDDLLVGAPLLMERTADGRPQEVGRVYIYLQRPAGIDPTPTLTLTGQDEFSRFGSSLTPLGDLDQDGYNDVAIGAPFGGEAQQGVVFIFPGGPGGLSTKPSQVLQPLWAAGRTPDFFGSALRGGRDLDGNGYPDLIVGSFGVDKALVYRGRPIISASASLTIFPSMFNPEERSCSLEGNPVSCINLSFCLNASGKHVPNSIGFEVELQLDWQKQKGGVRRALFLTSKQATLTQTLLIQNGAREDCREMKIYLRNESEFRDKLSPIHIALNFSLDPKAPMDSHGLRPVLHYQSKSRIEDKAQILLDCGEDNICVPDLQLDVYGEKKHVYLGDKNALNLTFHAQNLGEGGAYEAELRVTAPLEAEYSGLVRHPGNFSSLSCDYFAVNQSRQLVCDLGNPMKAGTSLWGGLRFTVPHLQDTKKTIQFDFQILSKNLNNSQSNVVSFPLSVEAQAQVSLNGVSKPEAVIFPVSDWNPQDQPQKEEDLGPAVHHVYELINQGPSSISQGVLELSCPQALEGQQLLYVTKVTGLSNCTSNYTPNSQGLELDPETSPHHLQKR
T1 sequence (P11688 899-1053 limits assumed): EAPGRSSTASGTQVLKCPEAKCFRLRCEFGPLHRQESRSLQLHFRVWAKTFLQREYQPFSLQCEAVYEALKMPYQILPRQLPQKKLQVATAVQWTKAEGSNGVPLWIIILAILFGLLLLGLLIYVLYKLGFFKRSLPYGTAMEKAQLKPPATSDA
T1 sequence (P09055 21-798): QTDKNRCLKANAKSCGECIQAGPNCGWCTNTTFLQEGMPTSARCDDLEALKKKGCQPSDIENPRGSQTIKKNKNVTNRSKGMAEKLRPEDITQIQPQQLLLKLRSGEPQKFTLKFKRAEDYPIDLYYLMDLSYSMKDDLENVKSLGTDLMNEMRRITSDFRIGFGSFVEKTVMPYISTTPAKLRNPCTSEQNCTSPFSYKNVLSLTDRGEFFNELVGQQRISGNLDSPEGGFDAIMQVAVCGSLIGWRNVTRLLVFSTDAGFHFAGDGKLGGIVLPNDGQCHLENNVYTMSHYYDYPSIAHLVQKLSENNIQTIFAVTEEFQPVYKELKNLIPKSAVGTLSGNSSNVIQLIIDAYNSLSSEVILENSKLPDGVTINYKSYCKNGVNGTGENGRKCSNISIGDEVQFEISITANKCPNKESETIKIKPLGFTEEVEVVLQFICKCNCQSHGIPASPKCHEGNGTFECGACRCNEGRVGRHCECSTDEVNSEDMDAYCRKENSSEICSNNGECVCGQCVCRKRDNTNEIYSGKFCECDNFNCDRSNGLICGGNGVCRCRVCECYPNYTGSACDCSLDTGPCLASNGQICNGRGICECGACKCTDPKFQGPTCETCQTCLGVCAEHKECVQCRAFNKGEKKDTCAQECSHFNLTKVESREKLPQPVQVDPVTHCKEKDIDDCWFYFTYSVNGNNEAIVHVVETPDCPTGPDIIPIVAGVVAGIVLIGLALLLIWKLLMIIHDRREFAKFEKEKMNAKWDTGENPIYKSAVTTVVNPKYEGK

Substance | alkaline phosphatase activity ([1]; tethered brushes vs RGD-functionalized surfaces) | bound α5β1 integrin staining [2] | ALP activity ([1]; 7 days, adsorbed coating vs untreated titanium)
FNIII7-10: monobiotinylated recombinant fibronectin fragment spanning the 7-10th type III repeats of fibronectin; α5β1 integrin ligand | higher alkaline phosphatase activity | robust, well-defined adhesive structures containing α5β1 integrins | –
GGYGGGPC(GPP)5GFOGER(GPP)5GPC [GFOGER peptide] | – | – | elevated levels of activation
GRGDSPC [RGD peptide, linear RGD oligopeptide purchased from BACHEM; primarily supports αvβ3-mediated adhesion, reference compound] | – | little staining for α5β1 | –
